Measurements as given in patent publication US20160237122A1.

Assays:
[1] = target: HIV-1 gp120 protein (Fitzgerald Industries International Inc, USA) (HIV-1); experiment: dot blot: value derived from 1 pg in 1 mL of 10-fold diluted human serum
[2] = target: HIV-1 gp120 protein (Fitzgerald Industries International Inc, USA) (HIV-1); experiment: dot blot: 5 ng fusion F23 peptide on nitrocellulose, gp120 in 10-fold diluted human serum, HRP-conjugated gp120 antibody, chemiluminescence
[3] = target: HIV-1 gp120 protein (Fitzgerald Industries International Inc, USA) (HIV-1); experiment: fusion peptide on Ni-NTA magnetic agarose beads, detected with FITC-labeled gp120 antibody, fluorescence microscopy

Question: How did the detectable gp120 concentration in human blood [1] turn out when MIHHHHHHEMISLIAALAVIEGRCNLHFCQLRCKSLGLLGKCAGSFCACV (designed binder) [fusion F23 peptide (His6-tag, 15 amino acid linker derived from E. coli DHFR, F23)] was run?
Answer: Its detectable gp120 concentration in human blood is 10 pg/mL.

Question: What about the detection limit of gp120 [2] of the same binder?
Answer: The detection limit of gp120 was 1 pg/mL.

Question: And the gp120 concentration detected [3]?
Answer: The gp120 concentration detected was 10 ng/µL.
